Results as given in US20210238279A1 (Johns Hopkins, published 2021).

T1: mouse ZnT8-His (mouse, UniProt Q8BGG0 1-367, limits assumed)
T1 construct: Over-expressed in HEK293 cells, solubilized with DDM and immobilized on Ni-NTA plates, or SDS-denatured on immunoblots; not shown: C-terminal poly-histidine tag
T1 sequence (looked up): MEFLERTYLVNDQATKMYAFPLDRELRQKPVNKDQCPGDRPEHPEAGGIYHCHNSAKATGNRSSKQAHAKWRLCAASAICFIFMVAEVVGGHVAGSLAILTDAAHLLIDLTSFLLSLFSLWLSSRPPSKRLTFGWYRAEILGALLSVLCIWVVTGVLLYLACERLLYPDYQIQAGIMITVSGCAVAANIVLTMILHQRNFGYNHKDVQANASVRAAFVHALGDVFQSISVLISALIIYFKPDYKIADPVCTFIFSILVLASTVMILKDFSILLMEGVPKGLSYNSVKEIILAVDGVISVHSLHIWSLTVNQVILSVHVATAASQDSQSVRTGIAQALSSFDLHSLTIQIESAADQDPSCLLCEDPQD

T2: human ZnT8 over-expressed in HEK293 cells (human, UniProt Q8IWU4 1-369)
T2 construct: whole, on cells; Cells were fixed and permeabilized for immunofluorescence and flow cytometry (intracellular staining); The same id is used for the detergent lysates of over-expressing cells in the HTRF assay; also called ZnT8(+) HEK293 cells; HEK293 cells stably expressing human ZnT8
T2 sequence (looked up): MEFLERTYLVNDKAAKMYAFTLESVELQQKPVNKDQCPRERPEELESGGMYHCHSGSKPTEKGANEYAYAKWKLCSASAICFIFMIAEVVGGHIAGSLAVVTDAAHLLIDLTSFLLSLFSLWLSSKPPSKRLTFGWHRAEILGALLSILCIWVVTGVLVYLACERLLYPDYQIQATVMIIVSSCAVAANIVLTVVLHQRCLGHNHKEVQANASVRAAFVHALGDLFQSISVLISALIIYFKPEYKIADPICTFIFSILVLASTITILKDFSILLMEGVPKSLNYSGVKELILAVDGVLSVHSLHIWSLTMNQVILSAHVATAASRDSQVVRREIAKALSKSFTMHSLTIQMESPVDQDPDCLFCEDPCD


Tests used:
mouse ZnT8-His [1] = molecular target: T1, mouse ZnT8-His; assay: ELISA titration on ZnT8-His immobilized on Ni-NTA plate; reference is human ZnT8-His; fold ratio of mouse to human apparent affinity; Ni-NTA plate titration
Excerpt: (§1) FIG. 7A-7D. mAb binding specificities (FIG. 7A) mAb binding to ZnT8-His immobilized to Ni-NTA plate. Bound mAb20 (red) or mAb39 (magenta) was detected by an HRP-conjugated secondary antibody. Solid lines are least-squares fits of binding datapoints to a one-component binding process. Error bars are standard errors (n=8). (FIG. 7B) SDS-denatured mouse ZnT8-His (labeled as M) and human ZnT8-His (labeled as H) on immunoblots were detected by mAb20 or mAb39 as indicated. […] (FIG. 7C) Detection of endogenous human ZnT8 in EndoC-βH cells by mAb20 or […] immunoblotting. An equal amount of EndoC-βH lysate (5 μg total protein) was loaded to each lane. (FIG. 7D) Immunoblotting of HEK lysates with or with over-expression of a ZnT homolog as indicated. An approximately equal amount of total lysate protein (5 μg) was located to each lane, probed by either mAb20, mAb39, or anti-FALG antibody as indicated. FIG. 8. HTRF response to human ZnT8, mouse ZnT8 and human ZnT3.
(§2) Binding specificities. […] Of note, the epitope-masking effect of ZnT8 immobilization weakened the apparent binding affinities of both mAbs as compared to the affinities determined by flow-cytometry, and such a weakening effect was more pronounced for mAb39, probably due to a closer proximity of the mAb39 epitope to the C-terminal His-tag. Next, we compared the immunoreactivities of mAbs to denatured ZnT8.

mouse ZnT8-His [2] = molecular target: T1, mouse ZnT8-His; assay: ELISA titration on mouse ZnT8-His immobilized on Ni-NTA plate; apparent binding affinity, one-component fit; DDM-solubilized mouse ZnT8 immobilized to Ni-NTA plate via His-tag; mAb titration
Excerpt: as §1, §2

[3] = molecular target: T2, human ZnT8 over-expressed in HEK293 …; assay: flow cytometry, serial mAb dilutions on fixed, permeabilized HEK293 cells stably expressing human ZnT8; one-component fit
Excerpt: (§3) FIG. 6A-6C. mAb binding affinity. (FIG. 6A) Representative confocal microscopy images of immunofluorescence staining of fixed and saponin-permeabilized HEK293 cells with mAb20 or mAb39 staining as indicated. ZnT8(+) or ZnT8(−) denotes HEK293 cells w/o ZnT8 over-expression. Red: mAb20 or mAb39 staining, blue: DAPI, scale bar: 5 um. (FIG. 6B) Histograms of flow cytometry counting events. Arrows indicate leftward shifts of the histogram as a result of mAb serial dilutions. (FIG. 6C) mAb binding to HEK293 cells w/o ZnT8 overexpression as indicated. Immunofluorescence intensities of mAb20 or mAb39 labeling in serial dilutions were obtained from (FIG. 6B). Solid lines are least-squares fits of the binding data to a one-component binding process.
(§4) Flow cytometry analysis. HEK293 cells w/o ZnT8 over-expression were fixed, permeabilized, and resuspended in PBS plus 5% BSA at a density of 1×10⁶/ml as described previously (43). Aliquots of 100 μl cell suspension were stained with mAb20 or mAb39 in 3-fold serial dilutions for 2 hours at RT, and then stained with Alexa fluor 647-conjugated donkey-anti-mouse secondary antibody in 1:1000 dilution with 5% BSA (Thermo Fisher Scientific, cat. #A31571). The labeled cells were analyzed immediately by flow cytometry. […]
(§5) Binding affinity. […] No mAb staining was detected in parental HEK293 cells without ZnT8 over-expression. […]

[4] = molecular target: T2, human ZnT8 over-expressed in HEK293 …; assay: flow cytometry of fixed and permeabilized HEK293 cells, mean fluorescence against antibody concentration
Excerpt: as §3, §4, §5

mouse ZnT8-His [5] = molecular target: T1, mouse ZnT8-His; assay: ELISA, ZnT8-His on Ni-NTA plate, HRP-conjugated secondary antibody; binder taken from the axis label and paragraph 166; curve taken as mouse
Excerpt: as §1, §2

Row | Binder | fold difference in apparent binding affinity, mouse against human ZnT8 (mouse ZnT8-His [1]) [fold] | Kd (mouse ZnT8-His [2]) [nM] | Kd [3] [nM] | EC50 (read off the curve) [4] [µg/mL] | EC50 (read off the curve) (mouse ZnT8-His [5]) [nM]
1 | mAb20 (antibody, V domains shown, Mouse hybridoma mAb purified on protein A/G; In some assays it was labelled with Alexa Fluor 488 or terbium cryptate; also called monoclonal antibody mAb20; anti-ZnT8 mAb20) VH: QIQLVQSGPELKKPGETVKISCKASGYIFTNYPMHWVKQAPGKGLKWMGWINTYSGVPTHADDFKGRFAFSLETSANSAFLQINNLKNEDTATYFCTRSRITPTGGYAMDYWGQGTSVTVSS VL: DVVMTQTPLSLPVSLGDQASISCRSSQSLVHSNGNTYLHWYLQKPGQSPNLLISKVSNRFSGVPERFSGSGSGTDFTLKISRVEAEDLGVYFCSQNTHVPWTFGGGTKLEIKR | 567 | 1420 | 0.8 | ~0.1 | 
2 | mAb39 (antibody, V domains shown, Mouse hybridoma mAb purified on protein A/G; In some assays it was labelled with Alexa Fluor 555 or d2; also called monoclonal antibody mAb39; anti-ZnT8 mAb39) VH: QVQLQQPGAELVKPGASVKLSCKASGYSFTTYWMHWVKQRPGQGLEWVGDINPRNGRTNYNEKSKSKATLTVDISSSTVYMQVSSLTSEDSAVYYCAIWSGAMDYWGPGTSVTVSS VL: DVVMTQTPLSLPVSLGDQPSISCKSSQSLVHNNGNTYLHWYLQKPGQSPKLLIYKVSNRFSGVPDRFSGSGSGTDFTLKISRVEAEDLGVYFCSQTTHVPPTFGGGTKLEIKR |  | 35.8 | 0.7 | ~0.1 | ~30
